Assay [1] addresses cSFB-tagged RBPJ (recombination signal-binding protein of immunoglobulin kappa J region with C-terminal SFB tag), Q06330. Nature of the assay: biomolecular interaction kinetics with purified proteins; RBPJ at 225 nM loaded on SA probe, FBXO42 at 19.5-625 nM. The settings on record: remark: other sources report otherwise.
The target of assay [2] is T1, CUL1 (UniProt Q13616 1-776).
T1 construct: also called Cullin-1
Nature of the assay: TAP-MS with FBXO42 as the bait in HEK293T cells. The procedure: TAP purification was performed as described previously (W Bian et al., Low-density-lipoprotein-receptor-related protein 1 mediates Notch pathway activation. Dev Cell 56, 2902-2919 e2908 (2021)). Briefly, 1×10⁸ HEK293T cells stably expressing cSFB-RBPJ or FBXO42 were lysed in 5 ml of NETN buffer (with protease inhibitors) at 4° C. for 30 min followed by TurboNuclease treatment. The lysate was then incubated with streptavidin-conjugated beads (Thermo Fisher Scientific, Waltham, MA) for 2 h at 4° C. After washing with NETN buffer, the bound proteins were eluted with NETN buffer containing 2 mg/mL biotin (Sigma, St. Louis, MO) for 2 h at 4° C. The eluates were then incubated with S-protein beads (EMD Millipore, Burlington, […]) for 4 h. The beads were washed three times with NETN buffer and subjected to SDS-PAGE, followed by Coomassie blue staining. The whole band was excised and subjected to in-gel trypsin digestion and MS analysis.
FBXO42 is a substrate-recognition component of the SKP1-CUL1-F-box protein (SCF)-type E3 ligase complex, which has been previously reported to promote p53 ubiquitination and degradation (L. Sun et al., JFK, a Kelch domain-containing F-box protein, links the SCF complex to p53 regulation. Proc Natl Acad Sci USA 106,10195-10200 (2009)). […]

Assay [3] deals with T2, RBPJ (Homo sapiens, UniProt Q06330).
T2 construct: SFB (cSFB) (C); made in house; host or cells: 293F cells
T2 sequence (Q06330 whole entry): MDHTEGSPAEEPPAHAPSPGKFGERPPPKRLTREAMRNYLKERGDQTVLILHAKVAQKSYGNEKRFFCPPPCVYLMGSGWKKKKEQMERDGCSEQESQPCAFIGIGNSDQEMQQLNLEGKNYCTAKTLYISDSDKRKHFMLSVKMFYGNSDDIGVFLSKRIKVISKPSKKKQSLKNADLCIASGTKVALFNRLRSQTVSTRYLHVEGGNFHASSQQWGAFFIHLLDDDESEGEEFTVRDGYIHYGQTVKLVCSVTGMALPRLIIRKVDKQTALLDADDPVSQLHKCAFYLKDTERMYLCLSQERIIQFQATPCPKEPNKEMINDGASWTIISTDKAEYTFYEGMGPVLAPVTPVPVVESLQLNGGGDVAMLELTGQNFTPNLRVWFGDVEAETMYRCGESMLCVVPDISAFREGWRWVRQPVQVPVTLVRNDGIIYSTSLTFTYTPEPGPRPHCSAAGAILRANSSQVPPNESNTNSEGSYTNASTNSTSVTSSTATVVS
Nature of the assay: Biomolecular interaction analysis with purified recombinant RBPJ and FBXO42 proteins. The settings on record: in vitro, RBPJ 225 nM on SA probe, FBXO42 19.5 nM-625 nM (FIG. 3I). It is filed as binding. From the text: (A) Interaction network of FBXO42. Top 50 interactors identified in TAP-MS was shown. (B) KEGG enrichment analysis of preys acquired in FBXO42 tandem-affinity purification (TAP)-MS. The x-axis represents gene ratio=count/set size. The size of the dots represents the number of genes associated with the GO term and the color of the dots represent the adjusted P-values. (C) Circos plot showing overlapping RBPJ and FBXO42 preys. Purple lines link the genes that shared by RBPJ and FBXO42. Blue lines link different genes enriched in the same ontology term. (D and E) HEK293T cell lysates were incubated with IgG control and antibodies against FBXO42 (D) or RBPJ (E). Five percent lysate was used as the input control. Blots with antibodies recognizing RBPJ, FBXO42 and Actin are shown. (F and G) HEK293T cells were cotransfected with Myc-tagged FBXO42 and cSFB-tagged RBPJ, as indicated. The cell lysates were incubated with S beads (F) or an anti-MYC antibody (G). Five percent lysate was used as the input control. Blots with antibodies recognizing the FLAG and MYC epitope tags and Actin are shown. (H) Coomassie blue staining of cSFB-tagged RBPJ and FLAG-FBXO42 proteins purified from 293F cells. (I) Biomolecular interaction kinetics curve showing the binding affinity between purified RBPJ and FBXO42 proteins. The RBPJ was used at 225 nM for binding to SA probe. […]

T1 sequence (Q13616 whole entry): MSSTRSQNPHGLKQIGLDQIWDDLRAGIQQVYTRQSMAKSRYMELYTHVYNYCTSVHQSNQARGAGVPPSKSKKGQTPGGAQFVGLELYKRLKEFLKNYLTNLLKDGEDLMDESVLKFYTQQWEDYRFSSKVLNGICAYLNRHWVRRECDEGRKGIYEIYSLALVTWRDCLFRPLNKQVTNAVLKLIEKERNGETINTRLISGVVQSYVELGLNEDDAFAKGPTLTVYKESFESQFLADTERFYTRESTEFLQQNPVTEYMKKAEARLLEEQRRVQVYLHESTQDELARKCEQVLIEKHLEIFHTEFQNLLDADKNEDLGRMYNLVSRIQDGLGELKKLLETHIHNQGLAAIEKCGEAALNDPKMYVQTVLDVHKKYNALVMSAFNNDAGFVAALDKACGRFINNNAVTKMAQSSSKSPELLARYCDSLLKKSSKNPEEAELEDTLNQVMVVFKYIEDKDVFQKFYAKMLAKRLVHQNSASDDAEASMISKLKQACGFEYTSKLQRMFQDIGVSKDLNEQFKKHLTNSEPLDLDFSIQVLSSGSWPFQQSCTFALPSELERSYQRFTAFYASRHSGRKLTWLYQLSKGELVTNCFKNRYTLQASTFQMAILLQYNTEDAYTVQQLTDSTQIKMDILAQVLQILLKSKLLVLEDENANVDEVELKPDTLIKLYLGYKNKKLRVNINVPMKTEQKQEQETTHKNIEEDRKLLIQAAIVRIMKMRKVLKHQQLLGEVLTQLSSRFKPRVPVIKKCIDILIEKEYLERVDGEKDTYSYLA
Sequence of cSFB-tagged RBPJ (recombination signal-binding protein of immunoglobulin kappa J region with C-terminal SFB tag), Q06330 (Q06330 whole entry): as the sequence (Q06330 whole entry) above

B1: cSFB-FBXO42 (FBXO42 with C-terminal SFB tag) (other, UniProt Q6P3S6 1-717, looked up)
chain: MASSSDSEDDSFMAVDQEETVLEGTMDQDEEPHPVLEAEETRHNRSMSELPEEVLEYILSFLSPYQEHKTAALVCKQWYRLIKGVAHQCYHGFMKAVQEGNIQWESRTYPYPGTPITQRFSHSACYYDANQSMYVFGGCTQSSCNAAFNDLWRLDLNSKEWIRPLASGSYPSPKAGATLVVYKDLLVLFGGWTRPSPYPLHQPERFFDEIHTYSPSKNWWNCIVTTHGPPPMAGHSSCVIDDKMIVFGGSLGSRQMSNDVWVLDLEQWAWSKPNISGPSPHPRGGQSQIVIDDATILILGGCGGPNALFKDAWLLHMHSGPWAWQPLKVENEEHGAPELWCHPACRVGQCVVVFSQAPSGRAPLSPSLNSRPSPISATPPALVPETREYRSQSPVRSMDEAPCVNGRWGTLRPRAQRQTPSGSREGSLSPARGDGSPILNGGSLSPGTAAVGGSSLDSPVQAISPSTPSAPEGYDLKIGLSLAPRRGSLPDQKDLRLGSIDLNWDLKPASSSNPMDGMDNRTVGGSMRHPPEQTNGVHTPPHVASALAGAVSPGALRRSLEAIKAMSSKGPSASAALSPPLGSSPGSPGSQSLSSGETVPIPRPGPAQGDGHSLPPIARRLGHHPPQSLNVGKPLYQSMNCKPMQMYVLDIKDTKEKGRVKWKVFNSSSVVGPPETSLHTVVQGRGELIIFGGLMDKKQNVKYYPKTNALYFVRAKR
notes: Stably expressed in HEK293T cells as bait for TAP-MS; also called FBXO42 bait; not shown: C-terminal SFB tag
For the molecule B1, the Kd in assay [1] amounted to 47 nM. Also, the binding result in assay [2] is listed as “binds”.

B2: FBXO42: purified recombinant F-box protein 42, substrate-recognition component of the SCF-type E3 ligase complex (protein)
chain: B1 chain
modifications: left off: small tags and cut ends
notes: purified recombinant F-box protein 42, substrate-recognition component of the SCF-type E3 ligase complex
For the molecule B2, the Kd in assay [3] is 47 nM.

Usually Kd stands for the constant that tells how readily two partners part at equilibrium.

Source of the values: US20260023068A1, “USE OF A FBXO42 SPECIFIC INHIBITOR IN TREATING NOTCH SIGNALING-DEPENDENT DISEASE” (WESTLAKE UNIVERSITY, priority 2022, published 2026).
